Test results from publication PMC8528422.

Target: FleQ, full length (FleQFL) (Pseudomonas aeruginosa) (UniProt G3XCV0)
Sequence (G3XCV0 whole entry): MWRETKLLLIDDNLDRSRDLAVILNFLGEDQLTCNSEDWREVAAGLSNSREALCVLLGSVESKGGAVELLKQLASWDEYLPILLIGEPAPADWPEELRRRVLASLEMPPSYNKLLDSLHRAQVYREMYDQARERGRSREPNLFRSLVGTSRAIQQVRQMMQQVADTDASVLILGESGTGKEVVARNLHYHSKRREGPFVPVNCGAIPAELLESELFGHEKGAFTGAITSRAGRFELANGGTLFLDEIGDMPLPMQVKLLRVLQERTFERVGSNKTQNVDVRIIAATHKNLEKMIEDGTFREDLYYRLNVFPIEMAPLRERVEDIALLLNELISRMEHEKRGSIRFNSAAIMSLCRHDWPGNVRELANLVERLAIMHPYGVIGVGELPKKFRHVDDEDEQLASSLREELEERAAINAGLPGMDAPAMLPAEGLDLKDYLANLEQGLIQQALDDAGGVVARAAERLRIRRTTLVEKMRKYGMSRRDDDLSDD

For PANPRGHLEFFVERLVQHPATGSAV [C-terminal peptide of FleN comprising the last 25 amino acids], the ATPase activity of FleQ (1 μM) left with 100 μM C-terminal peptide of FleN was 66%.
